Test results reported in patent US20120073987A1, “ELECT[…] AND APPARATUS OF IDENTIFYING THE PRESENCE OF A TARGET” (priority 2009, published 2012).

How the values were obtained:
HIV-1 integrase = biological target: T1, HIV-1 integrase (Human immunodeficiency virus type 1 group M subtype B, UniProt P04585); assay: Cyclic voltammetry detection of HIV-1 IN binding on peptide-IN-modified Thc-Fc Au microelectrodes
T1 construct: HIV integrase (100 μg, HIV-122, IN) was purchased from ProspecBio (USA); purchased ProspecBio HIV-122
Experimental: (§1) Au microelectrodes were incubated in 1 mM ethanolic solution of Thc-Fc overnight (˜15 h). The electrodes were rinsed with ethanol and Millipore water (18.2 MΩ.cm). This layer was terminated by the amino-reactive carboxyl moieties that allowed the attachment of the peptides. The carboxyl groups were activated with 2 mM EDC and 5 mM NHS in 50 mM phosphate buffer solution (pH 7.4) for 2 h. The N-terminus of the peptides was attached to the activated carboxyl groups of Thc-Fc to give the final electrode interface. The peptides (1 mM) were incubated with the activated electrodes in 50 mM phosphate buffer solution (pH 7.4) for 2 h on a block-shaker at room temperature. Thus, the peptides were conjugated with the Fc compounds on the surface. The remaining active-esters were quenched by incubating the peptide-modified electrodes in 100 mM ethanolamine solution for 1 h on a block-shaker at room temperature. The peptide-modified electrodes were then incubated in 1 mM hexanethiol solution for 5 min to produce a diluted film and to back-fill the empty spots on the electrode surface. Finally, the electrodes were rinsed with ethanol and Millipore water to give the peptide-modified sensor surfaces. […]

[1] = biological target: T2, HIV-1 reverse transcriptase (Human immunodeficiency virus type 1 group M subtype B, UniProt P04585); assay: Cyclic voltammetry detection of HIV-1 RT binding on peptide-RT-modified Thc-Fc Au microelectrodes
T2 construct: HIV-1 reverse transcriptase (200 U, T3610Y, RT) was purchased from GE Healthcare; purchased GE Healthcare T3610Y
Experimental: as §1

[2] = 100 nM protein solution, n=3 electrodes, FIG. 7

YQLLIRMIYKNI [peptide-IN, purchased peptide ligand for HIV-1 IN, immobilised on ferrocene-modified gold electrode]
electrochemical response to exposure to HIV-1 IN (selectivity) (HIV-1 integrase; [2]): responded to the exposure of HIV-1 IN | detection limit for HIV-1 IN (HIV-1 integrase; CV at 100 mV s^-1 in 2 M NaClO4, IN assay buffer pH 7.5): 20 nM

VEAIIRILQQLLFIH [peptide-RT, purchased peptide ligand for HIV-1 RT, immobilised on ferrocene-modified gold electrode]
electrochemical response to exposure to HIV-1 RT (selectivity) [1, 2]: responded to the exposure of HIV-1 RT | detection limit for HIV-1 RT ([1]; estimated from 3(Sb/m), CV at 100 mV s^-1 in 2 M NaClO4, 1 h incubation in RT assay buffer pH 7.2): 20 nM
